Tests used:
[1] = target: the molecule itself; assay: crystal structure
[2] = target: T1, MHF1;MHF2 (human;human, UniProt Q8N2Z9;A8MT69 1-138;1-81, |); assay: fluorescence polarization
[3] = target: T1, MHF1;MHF2; assay: EMSA
[4] = target: MHF1 K73A/R74A;MHF2;FANCM-F (human;human;human, UniProt Q8N2Z9;A8MT69;Q8IYD8 1-138;1-81;661-800, K73A;R74A||); assay: EMSA
[5] = target: MHF1 K73A/R74A;MHF2 R11A/K12A;FANCM-F K675A/K676A (human;human;human, UniProt Q8N2Z9;A8MT69;Q8IYD8 1-138;1-81;661-800, K73A;R74A|R11A;K12A|K675A;K676A); assay: EMSA
Sequence of MHF1 K73A/R74A;MHF2 R11A/K12A;FANCM-F K675A/K676A (A8MT69 whole entry R11A/K12A, chain 2 of 2): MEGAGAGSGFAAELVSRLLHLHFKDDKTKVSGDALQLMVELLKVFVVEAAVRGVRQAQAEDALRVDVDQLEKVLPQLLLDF
Sequence of MHF1 K73A/R74A;MHF2 R11A/K12A;FANCM-F K675A/K676A (Q8IYD8 661-800 K675A/K676A, chain 3 of 2): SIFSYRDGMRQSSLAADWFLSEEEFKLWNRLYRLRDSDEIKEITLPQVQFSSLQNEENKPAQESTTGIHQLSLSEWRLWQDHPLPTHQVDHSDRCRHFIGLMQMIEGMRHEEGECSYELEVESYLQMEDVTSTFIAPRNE

[6] = target: MHF1 R12A/R18A/K73A/R74A;MHF2;FANCM-F K686A/R690A/R693A (human;human;human, UniProt Q8N2Z9;A8MT69;Q8IYD8 1-138;1-81;661-800, R12A;R18A;K73A;R74A||K686A;R690A;R693A); assay: EMSA
Sequence of MHF1 R12A/R18A/K73A/R74A;MHF2;FANCM-F K686A/R690A/R693A (Q8N2Z9 whole entry R12A/R18A/K73A/R74A, chain 1 of 3): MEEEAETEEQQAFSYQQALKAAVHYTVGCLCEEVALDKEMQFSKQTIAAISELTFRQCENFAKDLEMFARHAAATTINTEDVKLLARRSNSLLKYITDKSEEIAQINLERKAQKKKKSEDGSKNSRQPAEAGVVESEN
Sequence of MHF1 R12A/R18A/K73A/R74A;MHF2;FANCM-F K686A/R690A/R693A (A8MT69 whole entry, chain 2 of 3): as the sequence (A8MT69 whole entry R11A/K12A, chain 2 of 2) above, with A11R, A12K counted along it
Sequence of MHF1 R12A/R18A/K73A/R74A;MHF2;FANCM-F K686A/R690A/R693A (Q8IYD8 661-800 K686A/R690A/R693A, chain 3 of 3): as the sequence (Q8IYD8 661-800 K675A/K676A, chain 3 of 2) above, with A15K, A16K, K26A, R30A, R33A counted along it

[7] = target: MHF1 1-107;MHF2;FANCM-F (human;human;human, UniProt Q8N2Z9;A8MT69;Q8IYD8 1-107;1-81;661-800, ||); assay: not stated
Sequence of MHF1 1-107;MHF2;FANCM-F (A8MT69 whole entry, chain 2 of 2): as the sequence (A8MT69 whole entry R11A/K12A, chain 2 of 2) above, with A11R, A12K counted along it
Sequence of MHF1 1-107;MHF2;FANCM-F (Q8IYD8 661-800, chain 3 of 2): as the sequence (Q8IYD8 661-800 K675A/K676A, chain 3 of 2) above, with A15K, A16K counted along it

[8] = target: MHF1;MHF2 K27A/K29A;FANCM-F (human;human;human, UniProt Q8N2Z9;A8MT69;Q8IYD8 1-138;1-81;661-800, |K27A;K29A|); assay: EMSA
Sequence of MHF1;MHF2 K27A/K29A;FANCM-F (A8MT69 whole entry K27A/K29A, chain 2 of 2): as the sequence (A8MT69 whole entry R11A/K12A, chain 2 of 2) above, with A11R, A12K, K27A, K29A counted along it
Sequence of MHF1;MHF2 K27A/K29A;FANCM-F (Q8IYD8 661-800, chain 3 of 2): as the sequence (Q8IYD8 661-800 K675A/K676A, chain 3 of 2) above, with A15K, A16K counted along it

[9] = target: MHF1 K73A/R74A;MHF2;FANCM-F K675A/K676A (human;human;human, UniProt Q8N2Z9;A8MT69;Q8IYD8 1-138;1-81;661-800, K73A;R74A||K675A;K676A); assay: EMSA
Sequence of MHF1 K73A/R74A;MHF2;FANCM-F K675A/K676A (A8MT69 whole entry, chain 2 of 2): as the sequence (A8MT69 whole entry R11A/K12A, chain 2 of 2) above, with A11R, A12K counted along it
Sequence of MHF1 K73A/R74A;MHF2;FANCM-F K675A/K676A (Q8IYD8 661-800 K675A/K676A, chain 3 of 2): as the sequence (Q8IYD8 661-800 K675A/K676A, chain 3 of 2) above

T1 sequence (A8MT69 whole entry, one chain of several): as the sequence (A8MT69 whole entry R11A/K12A, chain 2 of 2) above, with A11R, A12K counted along it
Sequence of MHF1 K73A/R74A;MHF2;FANCM-F (A8MT69 whole entry, chain 2 of 2): as the sequence (A8MT69 whole entry R11A/K12A, chain 2 of 2) above, with A11R, A12K counted along it
Sequence of MHF1 K73A/R74A;MHF2;FANCM-F (Q8IYD8 661-800, chain 3 of 2): as the sequence (Q8IYD8 661-800 K675A/K676A, chain 3 of 2) above, with A15K, A16K counted along it

B1: MHF1^1-107 (truncated MHF1 with the C-terminal 31 residues deleted) (domain or fragment, human, UniProt Q8N2Z9 1-107, looked up)
chain: MEEEAETEEQQRFSYQQRLKAAVHYTVGCLCEEVALDKEMQFSKQTIAAISELTFRQCENFAKDLEMFARHAKRTTINTEDVKLLARRSNSLLKYITDKSEEIAQIN
[1]
  binding result: binds

B2: 59 bp dsDNA (FPA) (dsDNA)
DNA 1: ACGCTGCCGAATTCTACCAGTGCCTTGCTAGGACATCTTTGCCCACCTGCAGGTTCACC
DNA 2: GGTGAACCTGCAGGTGGGCAAAGATGTCCTAGCAAGGCACTGGTAGAATTCGGCAGCGT
[2]
  binding result: binds

B3: 59 bp dsDNA (EMSA) (dsDNA)
DNA 1: ACGCTGCCGAATTCTACCAGTGCCTTGCTAGGACATCTTTGCCCACCTGCAGGTTCACC
DNA 2: GGTGAACCTGCAGGTGGGCAAAGATGTCCTAGCAAGGCACTGGTAGAATTCGGCAGCGT
[3]
  binding result: binds
[4]
  binding result: binds
[5]
  binding result: no binding
[6]
  binding result: no binding
[7]
  binding result: no binding
[8]
  binding result: binds
[9]
  binding result: no binding

Source: PMC3646547 (Nature communications, 2012)
